Results taken from US20140087995A1 (published 2014).
Numbered stars: 1 amine (or outer) side, 2 acyl side, 3 side chain; on linkers, the order of the positions; unused ones are H or OH. Bridge positions count the residues as written; N and C are the ends. Side chains are listed from the residue outwards. Ends that are not written are not given here. * marks the point of attachment. C20 diacid = O=C(O)CCCCCCCCCCCCCCCCCCC(=O)*; γGlu = O=C(O)[C@H](CCC(=O)[*:2])N[*:1]; AEEA = NCCOCCOCC(=O)O

Experiments:
[1] = target: T1, human calcitonin receptor (human, UniProt P30988 25-474); test: ratio of hCTR IC50 to hAmylin-R IC50 (reference: human amylin receptor)
T1 construct: whole, on cells; Used as cell membranes; also called hCTR; hCT
T1 sequence (looked up): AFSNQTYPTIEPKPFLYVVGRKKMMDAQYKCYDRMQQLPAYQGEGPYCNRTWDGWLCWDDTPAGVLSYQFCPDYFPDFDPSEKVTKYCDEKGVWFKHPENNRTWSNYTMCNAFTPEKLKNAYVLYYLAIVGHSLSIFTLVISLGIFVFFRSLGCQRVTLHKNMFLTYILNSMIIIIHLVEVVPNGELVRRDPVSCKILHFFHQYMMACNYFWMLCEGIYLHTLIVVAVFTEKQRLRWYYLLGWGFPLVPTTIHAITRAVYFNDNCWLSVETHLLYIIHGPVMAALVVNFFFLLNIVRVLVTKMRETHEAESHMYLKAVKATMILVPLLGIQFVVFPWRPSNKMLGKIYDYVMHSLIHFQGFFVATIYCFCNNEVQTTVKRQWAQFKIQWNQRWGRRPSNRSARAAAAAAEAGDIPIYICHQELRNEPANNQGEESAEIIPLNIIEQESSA
How it was run: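 Competition binding by SPA with cell membranes (35 ng/μL) and SPA beads in 50 mM Hepes pH 7.4 with 1 mM CaCl2, 5 mM MgCl2, 0.1% OA and 0.02% Tween20. Incubated 120 min at 25 °C with shaking, then counted.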

[2] = target: T1, human calcitonin receptor; test: SPA competition on BHK cell membranes, 125I-calcitonin as radioligand (Assay VII)
How it was run: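 BHK hCTR membranes 35 ng/μL + SPA beads 0.05 mg/well; buffer 50 mM Hepes pH 7.4, 1 mM CaCl2, 5 mM MgCl₂, 0.1% OA, 0.02% Tween20. 120 min, 25° C., shaking. Scintillation count; IC50 by one-site binding competition.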

B1: N^ε1-[2-[2-[2-[[2-[2-[2-[[(4S)-4-carboxy-4-(19-carboxynonadecanoylamino)butanoyl]amino]ethoxy]ethoxy]acetyl]amino]ethoxy]ethoxy]acetyl]-[Arg17,Pro21,Pro27,His34 … (peptide)
peptide: K([AEEA-AEEA-γGlu-C20 diacid])CNTATCATQRLANFLRHSSPNFGAIPSSTNVGHNTY-NH2
modifications: disulfide 2-7; N-terminus assumed
SMILES: CC[C@H](C)[C@H](NC(=O)[C@H](C)NC(=O)CNC(=O)[C@H](Cc1ccccc1)NC(=O)[C@H](CC(N)=O)NC(=O)[C@@H]1CCCN1C(=O)[C@H](CO)NC(=O)[C@H](CO)NC(=O)[C@H](Cc1c[nH]cn1)NC(=O)[C@H](CCCNC(=N)N)NC(=O)[C@H](CC(C)C)NC(=O)[C@H](Cc1ccccc1)NC(=O)[C@H](CC(N)=O)NC(=O)[C@H](C)NC(=O)[C@H](CC(C)C)NC(=O)[C@H](CCCNC(=N)N)NC(=O)[C@H](CCC(N)=O)NC(=O)[C@@H](NC(=O)[C@H](C)NC(=O)[C@@H]1CSSC[C@H](NC(=O)[C@@H](N)CCCCNC(=O)COCCOCCNC(=O)COCCOCCNC(=O)CC[C@H](NC(=O)CCCCCCCCCCCCCCCCCCC(=O)O)C(=O)O)C(=O)N[C@@H](CC(N)=O)C(=O)N[C@@H]([C@@H](C)O)C(=O)N[C@@H](C)C(=O)N[C@@H]([C@@H](C)O)C(=O)N1)[C@@H](C)O)C(=O)N1CCC[C@H]1C(=O)N[C@@H](CO)C(=O)N[C@@H](CO)C(=O)N[C@H](C(=O)N[C@@H](CC(N)=O)C(=O)N[C@H](C(=O)NCC(=O)N[C@@H](Cc1c[nH]cn1)C(=O)N[C@@H](CC(N)=O)C(=O)N[C@H](C(=O)N[C@@H](Cc1ccc(O)cc1)C(N)=O)[C@@H](C)O)C(C)C)[C@@H](C)O
notes: also called compound 97
- Ratio hCT/hAmylin binding [1]: 104
- IC50 [2]: 58.9 nM

B2: N^ε1-[2-[2-[2-(19-carboxynonadecanoylamino)ethoxy]ethoxy]acetyl]-[Arg17,Pro21,Pro27,His34]-h-amylin (peptide)
peptide: K([AEEA-C20 diacid])CNTATCATQRLANFLRHSSPNFGAIPSSTNVGHNTY-NH2
modifications: disulfide 2-7; N-terminus assumed
SMILES: CC[C@H](C)[C@H](NC(=O)[C@H](C)NC(=O)CNC(=O)[C@H](Cc1ccccc1)NC(=O)[C@H](CC(N)=O)NC(=O)[C@@H]1CCCN1C(=O)[C@H](CO)NC(=O)[C@H](CO)NC(=O)[C@H](Cc1c[nH]cn1)NC(=O)[C@H](CCCNC(=N)N)NC(=O)[C@H](CC(C)C)NC(=O)[C@H](Cc1ccccc1)NC(=O)[C@H](CC(N)=O)NC(=O)[C@H](C)NC(=O)[C@H](CC(C)C)NC(=O)[C@H](CCCNC(=N)N)NC(=O)[C@H](CCC(N)=O)NC(=O)[C@@H](NC(=O)[C@H](C)NC(=O)[C@@H]1CSSC[C@H](NC(=O)[C@@H](N)CCCCNC(=O)COCCOCCNC(=O)CCCCCCCCCCCCCCCCCCC(=O)O)C(=O)N[C@@H](CC(N)=O)C(=O)N[C@@H]([C@@H](C)O)C(=O)N[C@@H](C)C(=O)N[C@@H]([C@@H](C)O)C(=O)N1)[C@@H](C)O)C(=O)N1CCC[C@H]1C(=O)N[C@@H](CO)C(=O)N[C@@H](CO)C(=O)N[C@H](C(=O)N[C@@H](CC(N)=O)C(=O)N[C@H](C(=O)NCC(=O)N[C@@H](Cc1c[nH]cn1)C(=O)N[C@@H](CC(N)=O)C(=O)N[C@H](C(=O)N[C@@H](Cc1ccc(O)cc1)C(N)=O)[C@@H](C)O)C(C)C)[C@@H](C)O
notes: also called compound 91
- Ratio hCT/hAmylin binding [1]: 101
- IC50 [2]: 12 nM

B3: N^ε1-[(4S)-4-carboxy-4-[[(4S)-4-carboxy-4-(19-carboxynonadecanoylamino)butanoyl]amino]butanoyl]-[His14,Arg17,Pro21,Pro27]-h-amylin (peptide)
peptide: K([γGlu-γGlu-C20 diacid])CNTATCATQRLAHFLRHSSPNFGAIPSSTNVGSNTY-NH2
modifications: disulfide 2-7; N-terminus assumed
SMILES: CC[C@H](C)[C@H](NC(=O)[C@H](C)NC(=O)CNC(=O)[C@H](Cc1ccccc1)NC(=O)[C@H](CC(N)=O)NC(=O)[C@@H]1CCCN1C(=O)[C@H](CO)NC(=O)[C@H](CO)NC(=O)[C@H](Cc1c[nH]cn1)NC(=O)[C@H](CCCNC(=N)N)NC(=O)[C@H](CC(C)C)NC(=O)[C@H](Cc1ccccc1)NC(=O)[C@H](Cc1c[nH]cn1)NC(=O)[C@H](C)NC(=O)[C@H](CC(C)C)NC(=O)[C@H](CCCNC(=N)N)NC(=O)[C@H](CCC(N)=O)NC(=O)[C@@H](NC(=O)[C@H](C)NC(=O)[C@@H]1CSSC[C@H](NC(=O)[C@@H](N)CCCCNC(=O)CC[C@H](NC(=O)CC[C@H](NC(=O)CCCCCCCCCCCCCCCCCCC(=O)O)C(=O)O)C(=O)O)C(=O)N[C@@H](CC(N)=O)C(=O)N[C@@H]([C@@H](C)O)C(=O)N[C@@H](C)C(=O)N[C@@H]([C@@H](C)O)C(=O)N1)[C@@H](C)O)C(=O)N1CCC[C@H]1C(=O)N[C@@H](CO)C(=O)N[C@@H](CO)C(=O)N[C@H](C(=O)N[C@@H](CC(N)=O)C(=O)N[C@H](C(=O)NCC(=O)N[C@@H](CO)C(=O)N[C@@H](CC(N)=O)C(=O)N[C@H](C(=O)N[C@@H](Cc1ccc(O)cc1)C(N)=O)[C@@H](C)O)C(C)C)[C@@H](C)O
notes: also called compound 92
- Ratio hCT/hAmylin binding [1]: 145
- IC50 [2]: 26 nM

B4: N^ε1N^ε1-[(4S)-4-carboxy-4-(19-carboxynonadecanoylamino)butanoyl]-[His14,Arg17,Pro21,Pro27,Pro34]-h-amylin (peptide)
peptide: K([γGlu-C20 diacid])CNTATCATQRLAHFLRHSSPNFGAIPSSTNVGPNTY-NH2
modifications: disulfide 2-7; N-terminus assumed
SMILES: CC[C@H](C)[C@H](NC(=O)[C@H](C)NC(=O)CNC(=O)[C@H](Cc1ccccc1)NC(=O)[C@H](CC(N)=O)NC(=O)[C@@H]1CCCN1C(=O)[C@H](CO)NC(=O)[C@H](CO)NC(=O)[C@H](Cc1c[nH]cn1)NC(=O)[C@H](CCCNC(=N)N)NC(=O)[C@H](CC(C)C)NC(=O)[C@H](Cc1ccccc1)NC(=O)[C@H](Cc1c[nH]cn1)NC(=O)[C@H](C)NC(=O)[C@H](CC(C)C)NC(=O)[C@H](CCCNC(=N)N)NC(=O)[C@H](CCC(N)=O)NC(=O)[C@@H](NC(=O)[C@H](C)NC(=O)[C@@H]1CSSC[C@H](NC(=O)[C@@H](N)CCCCNC(=O)CC[C@H](NC(=O)CCCCCCCCCCCCCCCCCCC(=O)O)C(=O)O)C(=O)N[C@@H](CC(N)=O)C(=O)N[C@@H]([C@@H](C)O)C(=O)N[C@@H](C)C(=O)N[C@@H]([C@@H](C)O)C(=O)N1)[C@@H](C)O)C(=O)N1CCC[C@H]1C(=O)N[C@@H](CO)C(=O)N[C@@H](CO)C(=O)N[C@H](C(=O)N[C@@H](CC(N)=O)C(=O)N[C@H](C(=O)NCC(=O)N1CCC[C@H]1C(=O)N[C@@H](CC(N)=O)C(=O)N[C@H](C(=O)N[C@@H](Cc1ccc(O)cc1)C(N)=O)[C@@H](C)O)C(C)C)[C@@H](C)O
notes: also called compound 67
- Ratio hCT/hAmylin binding [1]: 51.6
- IC50 [2]: 4.63 nM

B5: N^-1-[(4S)-4-carboxy-4-(19-carboxynonadecanoylamino)butanoyl]-Gly[Arg1,Ala14,Arg17,Pro21,Pro27,His34]-h-amylin (peptide)
peptide: {C20 diacid-γGlu}-GRCNTATCATQRLAAFLRHSSPNFGAIPSSTNVGHNTY-NH2
modifications: disulfide 3-8
SMILES: CC[C@H](C)[C@H](NC(=O)[C@H](C)NC(=O)CNC(=O)[C@H](Cc1ccccc1)NC(=O)[C@H](CC(N)=O)NC(=O)[C@@H]1CCCN1C(=O)[C@H](CO)NC(=O)[C@H](CO)NC(=O)[C@H](Cc1c[nH]cn1)NC(=O)[C@H](CCCNC(=N)N)NC(=O)[C@H](CC(C)C)NC(=O)[C@H](Cc1ccccc1)NC(=O)[C@H](C)NC(=O)[C@H](C)NC(=O)[C@H](CC(C)C)NC(=O)[C@H](CCCNC(=N)N)NC(=O)[C@H](CCC(N)=O)NC(=O)[C@@H](NC(=O)[C@H](C)NC(=O)[C@@H]1CSSC[C@H](NC(=O)[C@H](CCCNC(=N)N)NC(=O)CNC(=O)CC[C@H](NC(=O)CCCCCCCCCCCCCCCCCCC(=O)O)C(=O)O)C(=O)N[C@@H](CC(N)=O)C(=O)N[C@@H]([C@@H](C)O)C(=O)N[C@@H](C)C(=O)N[C@@H]([C@@H](C)O)C(=O)N1)[C@@H](C)O)C(=O)N1CCC[C@H]1C(=O)N[C@@H](CO)C(=O)N[C@@H](CO)C(=O)N[C@H](C(=O)N[C@@H](CC(N)=O)C(=O)N[C@H](C(=O)NCC(=O)N[C@@H](Cc1c[nH]cn1)C(=O)N[C@@H](CC(N)=O)C(=O)N[C@H](C(=O)N[C@@H](Cc1ccc(O)cc1)C(N)=O)[C@@H](C)O)C(C)C)[C@@H](C)O
notes: 38 residues
- Ratio hCT/hAmylin binding [1]: 68.6
- IC50 [2]: 29.2 nM

Binder: {C20 diacid-γGlu}-GRCNTATCATQRLAAFLRHSSPNFGAIPSSTNVGPNTY-NH2 (disulfide 3-8, 38 residues)
- Ratio hCT/hAmylin binding [1]: 26.5
- IC50 [2]: 3 nM

B6: N^ε1-[(4S)-4-carboxy-4-(19-carboxynonadecanoylamino)butanoyl]-[Arg17,Pro21,Pro27,His34]-h-amylin (peptide)
peptide: K([γGlu-C20 diacid])CNTATCATQRLANFLRHSSPNFGAIPSSTNVGHNTY-NH2
modifications: disulfide 2-7; N-terminus assumed
SMILES: CC[C@H](C)[C@H](NC(=O)[C@H](C)NC(=O)CNC(=O)[C@H](Cc1ccccc1)NC(=O)[C@H](CC(N)=O)NC(=O)[C@@H]1CCCN1C(=O)[C@H](CO)NC(=O)[C@H](CO)NC(=O)[C@H](Cc1c[nH]cn1)NC(=O)[C@H](CCCNC(=N)N)NC(=O)[C@H](CC(C)C)NC(=O)[C@H](Cc1ccccc1)NC(=O)[C@H](CC(N)=O)NC(=O)[C@H](C)NC(=O)[C@H](CC(C)C)NC(=O)[C@H](CCCNC(=N)N)NC(=O)[C@H](CCC(N)=O)NC(=O)[C@@H](NC(=O)[C@H](C)NC(=O)[C@@H]1CSSC[C@H](NC(=O)[C@@H](N)CCCCNC(=O)CC[C@H](NC(=O)CCCCCCCCCCCCCCCCCCC(=O)O)C(=O)O)C(=O)N[C@@H](CC(N)=O)C(=O)N[C@@H]([C@@H](C)O)C(=O)N[C@@H](C)C(=O)N[C@@H]([C@@H](C)O)C(=O)N1)[C@@H](C)O)C(=O)N1CCC[C@H]1C(=O)N[C@@H](CO)C(=O)N[C@@H](CO)C(=O)N[C@H](C(=O)N[C@@H](CC(N)=O)C(=O)N[C@H](C(=O)NCC(=O)N[C@@H](Cc1c[nH]cn1)C(=O)N[C@@H](CC(N)=O)C(=O)N[C@H](C(=O)N[C@@H](Cc1ccc(O)cc1)C(N)=O)[C@@H](C)O)C(C)C)[C@@H](C)O
notes: also called compound 77
- Ratio hCT/hAmylin binding [1]: 118
- IC50 [2]: 50.7 nM
